One experiment addresses T1, integrin αvβ3 (Homo sapiens, UniProt P05106+P06756).
T1 construct: using the soluble αv and β3 expression constructs provided by Tim Springer; made in house; host or cells: CHO K1
Description: Soluble integrin binding assay (ELISA-type), soluble αvβ3 on immobilized FGF. The settings on record: coated at 10 μg/ml; soluble αvβ3 5 μg/ml, 1 mM MnCl2. The method, then: Wells of 96-well microtiter plates were coated with 10 μg/ml FGF-1 or FGF-2 and remaining protein binding sites were blocked with 1 mg/ml BSA. Recombinant soluble αvβ3 (50 μl/well at 5 μg/ml in Hepes-Tyrode buffer supplemented with 1 mM MnCl2) was added to wells and incubated for 1 h at room temperature. Soluble αvβ3 was incubated with 10 μg/ml 7E3 (white bar) or mouse IgG (black bar) for 10 min on ice prior to adding to the wells. BSA (circle) was used as a negative control. Data is shown as means+/−SD of triplicate experiments.
FGF-1 (10 μg/m) was heat-treated at indicated temperature for 10 min prior to immobilization. Binding of soluble αvβ3 was determined as described in FIG. 1. Data is shown as percent binding+/−SD of triplicate experiments.
Amino acid residues in the integrin-binding site or in the FGFR-binding site were mutated individually or in groups. Wild-type (diamond), R50E (open square), N33A (closed square), 4xE (circle), 3xA (triangle) were coated to a plastic plate various concentration as indicated and the binding of soluble αvβ3 was determined as described in FIG. 2. BSA (cross) was used as a negative control. […] “4xE” represents the K127E/K128E/K133E/R134E mutant. “3xA” represents the E102A/Y109A/Q110A mutant.
Binding assays were performed as previously described (Takagi et al., 2001). Native or heat-denatured FGF-1 in 0.1 M carbonate buffer, pH 9.4, were incubated in a polystyrene 96-well non-tissue culture plates surface overnight at 4° C. Unbound FGF-1 was removed, and 200 μl of 0.1% bovine serum albumin in PBS was added and incubated for 60 min at room temperature. The wells were washed with PBS and soluble integrin αvβ3 in 50 μl in Hepes-Tyrode buffer supplemented with 1 mM Mn^2+ were added to the wells and incubated at room temperature for 60 min. After non-bound soluble integrin were removed by rinsing the wells with the same buffer. Horseradish peroxidase (HRP) conjugated anti His-tag mouse IgG was added to well and incubated 60 min. Non-bound antibodies were removed by rinsing the wells with the same buffer, bound integrins were quantified by measuring the absorbance of 450 nm developed from adding the substrate (3,3′,5,5′-tetramethylbenzidine) of HRP unbound protein was aspirated, and the wells were washed with PBS three times.
Background: ELISA stands for enzyme-linked immunosorbent assay.

In another experiment the test system is ERK1/2. Description: MAP kinase (ERK1/2) activation, western blot. The settings on record: 5 μg/ml heparin. The format is cell-based, mouse. The method, then:
Serum starved Balb3T3 cells were stimulated with wild-type and mutant FGF-1s (5 ng/ml) in the presence or absence of 5 μg/ml heparin for 10 min at 37° C. Cell lysates were analyzed by western blotting with anti-phospho ERK1/2 (anti phospho-ERK). Total amount of ERK1/2 in each lane was determined by blotting with anti-ERK1/2. Controls contain medium alone (none) or medium containing 10% fetal calf serum (FCS).
Balb3T3 cells were grown to confluence and serum starved in DMEM supplemented with 0.4% fetal calf serum for 24 h, and stimulated with wild type and mutant FGF-1 (5 ng/ml) in the presence or absence of 5 μg/ml heparin for 10 min at 37° C. Cells were washed twice with ice-cold PBS and lysed with the lysis buffer (20 mM Tris-HCI pH 8.0, 120 mM NaCl, 5 mM EDTA, 0.5% Triton-X100, 1 mM PMSF, 1 mM DTT, 10 mM NaF, 1 mM Na3VO4, 10 μg/ml aprotinin). Cell lysates were separated on 4-12% NuPAGE Bis-Tris Gel (invitrogen). Proteins were then transferred to PVDF membranes (Milli-pore), probed with antibodies, and bound antibodies were detected by HRP-conjugated anti-mouse IgG and chemiluminescence HRP substrate (Pierce). The antibodies used were anti-phospho-ERK1/2, anti-ERK1/2 (Cell Signaling Technology).
(In western blotting, separated proteins are transferred to a membrane and probed.)

A further experiment addresses T2, FGF-1-αvβ3 interaction (Homo sapiens, UniProt P05106+P06756).
T2 construct: using the soluble αv and β3 expression constructs provided by Tim Springer; made in house; host or cells: CHO K1 (integrin); E. coli BL21 (DE3) (FGF-1)
Description: Inhibition of FGF-1-αvβ3 interaction by γC. The format is binding. The settings on record: immobilized FGF-1 10 μg/ml, increasing concentrations of soluble γC. The method, then:
FGF-1 (10 μg/m) was immobilized to the plastic plate. Soluble αvβ3 was added to the wells together with increasing concentrations of soluble γC. Binding was determined as described in A. Data is shown as percent binding+/−SD of triplicate experiments with no addition of γC as 100.
FGF-1 (10 μg/ml) was immobilized to wells of 96-well plates. Soluble αvβ3 integrin was added to the wells with various concentration of γC. Bound integrin was detected by using HRP-conjugated anti-6His antibodies and its substrate as described above.

T1 sequence (P06756 31-992 limits assumed): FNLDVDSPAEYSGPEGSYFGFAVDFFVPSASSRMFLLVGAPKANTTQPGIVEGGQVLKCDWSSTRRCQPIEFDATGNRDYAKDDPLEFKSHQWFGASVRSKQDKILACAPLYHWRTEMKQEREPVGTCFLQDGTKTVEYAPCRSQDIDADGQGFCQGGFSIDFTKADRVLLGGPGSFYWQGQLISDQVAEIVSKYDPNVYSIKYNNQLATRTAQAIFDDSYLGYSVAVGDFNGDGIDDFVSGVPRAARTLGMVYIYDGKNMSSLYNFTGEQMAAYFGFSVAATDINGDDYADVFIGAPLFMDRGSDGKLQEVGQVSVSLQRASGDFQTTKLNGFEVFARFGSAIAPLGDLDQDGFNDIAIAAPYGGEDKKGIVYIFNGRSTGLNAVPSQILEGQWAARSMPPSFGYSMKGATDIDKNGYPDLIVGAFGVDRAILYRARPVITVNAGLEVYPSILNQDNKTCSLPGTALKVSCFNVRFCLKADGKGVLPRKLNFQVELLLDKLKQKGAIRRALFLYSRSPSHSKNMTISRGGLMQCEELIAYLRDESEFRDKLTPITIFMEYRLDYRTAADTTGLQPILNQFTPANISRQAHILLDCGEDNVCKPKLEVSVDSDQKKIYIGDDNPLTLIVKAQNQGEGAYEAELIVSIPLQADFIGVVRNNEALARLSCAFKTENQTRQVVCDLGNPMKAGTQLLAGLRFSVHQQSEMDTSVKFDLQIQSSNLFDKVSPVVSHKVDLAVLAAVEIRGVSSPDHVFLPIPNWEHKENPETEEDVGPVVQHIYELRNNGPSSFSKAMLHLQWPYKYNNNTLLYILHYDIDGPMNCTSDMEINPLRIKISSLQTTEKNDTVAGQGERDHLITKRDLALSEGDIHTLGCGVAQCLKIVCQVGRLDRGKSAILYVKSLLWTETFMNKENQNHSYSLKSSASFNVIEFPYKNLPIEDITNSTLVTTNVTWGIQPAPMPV
T1 sequence (P05106 27-718 limits assumed): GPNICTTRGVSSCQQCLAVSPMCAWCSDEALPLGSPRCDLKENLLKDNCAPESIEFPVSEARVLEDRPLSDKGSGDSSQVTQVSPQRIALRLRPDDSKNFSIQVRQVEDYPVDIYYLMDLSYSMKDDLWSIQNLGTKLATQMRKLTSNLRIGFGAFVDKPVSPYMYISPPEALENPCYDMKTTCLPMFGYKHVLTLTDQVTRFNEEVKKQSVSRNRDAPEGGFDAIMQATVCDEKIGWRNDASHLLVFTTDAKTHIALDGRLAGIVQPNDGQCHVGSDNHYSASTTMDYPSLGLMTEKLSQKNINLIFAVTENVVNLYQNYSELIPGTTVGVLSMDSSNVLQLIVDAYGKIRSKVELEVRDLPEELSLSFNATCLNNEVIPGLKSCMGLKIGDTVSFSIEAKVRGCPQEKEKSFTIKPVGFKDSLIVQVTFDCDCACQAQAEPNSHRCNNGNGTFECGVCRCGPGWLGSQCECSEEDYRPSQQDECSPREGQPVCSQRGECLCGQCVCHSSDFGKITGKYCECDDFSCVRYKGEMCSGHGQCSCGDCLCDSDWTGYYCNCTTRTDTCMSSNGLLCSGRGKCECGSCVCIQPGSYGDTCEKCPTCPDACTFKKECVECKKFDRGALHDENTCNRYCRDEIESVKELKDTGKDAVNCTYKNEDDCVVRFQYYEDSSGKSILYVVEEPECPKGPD
T2 sequence (P06756 31-992 limits assumed): as the sequence (P06756 31-992 limits assumed) above
T2 sequence (P05106 27-718 limits assumed): as the sequence (P05106 27-718 limits assumed) above

Take “FGF-2: basic FGF, used as a positive control for αvβ3 binding”: in the experiment with integrin αvβ3, the “binding of soluble αvβ3 to the immobilized protein” value is “bound”.
On to heparin [reference compound], for which the “effect of heparin on FGF-1-induced ERK1/2 activation” value in the experiment with ERK1/2 is “did not enhance”.

B1: γC: globular carboxyl-terminal domain of the fibrinogen γ-chain, a known ligand for αvβ3 (protein)
chain: KDCQDIANKGAKQSGLYFIKPLKANQQFLVYCEIDGSGNGWTVFQKRLDGSVDFKKNWIQYKEGFGHLSPTGTTEFWLGNEKIHLISTQSAIPYALRVELEDWNGRTSTADYAMFKVGPEADKYRLTYAYFAGGDAGDAFDGFDFGDDPSDKFFTSHNGMQFSTWDNDNDKFEGNCAEQDGSGWWMNKCHAGHLNGVYYQGGTYSKASTPNGYDNGIIWATWKTRWYSMKKTTMKIIPFNRLTIGEGQQHHLGGAKQAGDV
As to B1, in the experiment with FGF-1-αvβ3 interaction, the “blocking of FGF-1-αvβ3 interaction” value is recorded as “effectively block”.
